B1: Rho-related GTP-binding protein RhoD (Homo sapiens), O00212 (parent)
chain: MTAAQAAGEEAPPGVRSVKVVLVGDGGCGKTSLLMVFADGAFPESYTPTVFERYMVNLQVKGKPVHLHIWDTAGQDDYDRLRPLFYPDASVLLLCFDVTSPNSFDNIFNRWYPEVNHFCKKVPIIVVGCKTDLRKDKSLVNKLRRNGLEPVTYHRGQEMARSVGAVAYLECSARLHDNVHAVFQEAAEVALSSRGRNFWRRITQGFCVVT

Variants of: B1
Settings: with plxb1_human PLXNB1, O43157
plxb1_human PLXNB1, O43157, sequence (O43157 whole entry): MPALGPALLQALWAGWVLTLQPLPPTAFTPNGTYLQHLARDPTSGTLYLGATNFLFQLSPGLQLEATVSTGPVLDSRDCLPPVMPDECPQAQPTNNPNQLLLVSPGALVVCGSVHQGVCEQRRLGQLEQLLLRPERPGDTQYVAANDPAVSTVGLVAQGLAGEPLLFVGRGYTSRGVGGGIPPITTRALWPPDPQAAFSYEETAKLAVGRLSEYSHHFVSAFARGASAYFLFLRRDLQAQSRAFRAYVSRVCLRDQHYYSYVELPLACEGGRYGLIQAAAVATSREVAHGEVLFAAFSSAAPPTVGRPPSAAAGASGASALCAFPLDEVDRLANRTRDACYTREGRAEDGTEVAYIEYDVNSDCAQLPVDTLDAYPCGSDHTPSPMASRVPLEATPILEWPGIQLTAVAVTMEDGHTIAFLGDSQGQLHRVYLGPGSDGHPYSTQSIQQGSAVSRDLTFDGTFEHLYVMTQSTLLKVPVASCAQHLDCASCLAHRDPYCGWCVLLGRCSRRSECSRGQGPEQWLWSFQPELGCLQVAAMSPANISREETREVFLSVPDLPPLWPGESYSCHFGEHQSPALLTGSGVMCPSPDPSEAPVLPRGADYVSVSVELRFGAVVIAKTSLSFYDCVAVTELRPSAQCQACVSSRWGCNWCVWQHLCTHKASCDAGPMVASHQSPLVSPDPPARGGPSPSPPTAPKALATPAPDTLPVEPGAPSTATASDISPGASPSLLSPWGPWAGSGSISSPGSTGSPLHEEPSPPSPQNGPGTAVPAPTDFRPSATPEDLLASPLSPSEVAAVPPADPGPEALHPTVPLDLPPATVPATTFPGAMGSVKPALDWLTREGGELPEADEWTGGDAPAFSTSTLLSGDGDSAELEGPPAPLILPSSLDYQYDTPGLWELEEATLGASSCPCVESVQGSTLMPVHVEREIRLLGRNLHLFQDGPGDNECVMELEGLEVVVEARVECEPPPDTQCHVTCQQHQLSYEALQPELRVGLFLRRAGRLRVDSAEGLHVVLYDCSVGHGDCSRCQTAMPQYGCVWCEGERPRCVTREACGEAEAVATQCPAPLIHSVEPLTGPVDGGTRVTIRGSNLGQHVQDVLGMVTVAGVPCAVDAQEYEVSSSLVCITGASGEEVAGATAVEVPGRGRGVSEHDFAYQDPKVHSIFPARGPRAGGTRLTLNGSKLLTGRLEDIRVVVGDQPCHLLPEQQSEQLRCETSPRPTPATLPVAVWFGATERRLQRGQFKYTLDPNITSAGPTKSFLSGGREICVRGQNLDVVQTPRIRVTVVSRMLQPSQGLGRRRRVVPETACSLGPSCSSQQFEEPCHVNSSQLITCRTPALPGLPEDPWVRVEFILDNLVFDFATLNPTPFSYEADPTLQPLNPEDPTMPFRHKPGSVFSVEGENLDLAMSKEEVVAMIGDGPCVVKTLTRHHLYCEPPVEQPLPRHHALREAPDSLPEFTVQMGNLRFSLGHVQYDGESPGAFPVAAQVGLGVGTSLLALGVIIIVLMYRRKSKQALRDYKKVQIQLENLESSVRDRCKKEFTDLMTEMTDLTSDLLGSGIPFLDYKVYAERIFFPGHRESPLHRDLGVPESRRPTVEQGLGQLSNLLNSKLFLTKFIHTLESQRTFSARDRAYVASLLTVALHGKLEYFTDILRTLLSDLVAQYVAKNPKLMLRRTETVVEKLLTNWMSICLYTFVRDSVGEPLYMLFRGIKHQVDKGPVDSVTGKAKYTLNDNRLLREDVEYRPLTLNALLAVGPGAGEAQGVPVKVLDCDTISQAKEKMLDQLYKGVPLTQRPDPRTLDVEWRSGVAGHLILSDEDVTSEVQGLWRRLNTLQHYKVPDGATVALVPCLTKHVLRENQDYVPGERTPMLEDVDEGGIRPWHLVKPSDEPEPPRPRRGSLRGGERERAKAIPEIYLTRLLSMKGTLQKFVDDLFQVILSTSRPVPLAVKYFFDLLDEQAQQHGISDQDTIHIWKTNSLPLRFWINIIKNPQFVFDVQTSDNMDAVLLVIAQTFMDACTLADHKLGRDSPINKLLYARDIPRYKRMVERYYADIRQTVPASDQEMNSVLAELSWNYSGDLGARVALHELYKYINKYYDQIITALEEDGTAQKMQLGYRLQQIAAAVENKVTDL
MTAAQAAGEEAPPGVRSVKVVLVGDGGCGKKSLLMVFADGAFPESYTPTVFERYMVNLQVKGKPVHLHIWDTAGQDDYDRLRPLFYPDASVLLLCFDVTSPNSFDNIFNRWYPEVNHFCKKVPIIVVGCKTDLRKDKSLVNKLRRNGLEPVTYHRGQEMARSVGAVAYLECSARLHDNVHAVFQEAAEVALSSRGRNFWRRITQGFCVVT [T31K] was tested, and the “effect of a mutation on the interaction” value was “disrupting interaction”.

— IntAct's records for PubMed 22404908
